Test results published in paper PMC12499416, “ATF3 Deficiency Exacerbates Ageing‐Induced Atherosclerosis and Clinical Intervention Strategy” (Advanced Science, 2025).

Target: T1, ATG7 (analyte of the surface plasmon resonance assay) (UniProt Q9D906 1-698)
T1 construct: ATG7 used for surface plasmon resonance; Source of the protein may stand in the Supporting Information
T1 sequence (looked up): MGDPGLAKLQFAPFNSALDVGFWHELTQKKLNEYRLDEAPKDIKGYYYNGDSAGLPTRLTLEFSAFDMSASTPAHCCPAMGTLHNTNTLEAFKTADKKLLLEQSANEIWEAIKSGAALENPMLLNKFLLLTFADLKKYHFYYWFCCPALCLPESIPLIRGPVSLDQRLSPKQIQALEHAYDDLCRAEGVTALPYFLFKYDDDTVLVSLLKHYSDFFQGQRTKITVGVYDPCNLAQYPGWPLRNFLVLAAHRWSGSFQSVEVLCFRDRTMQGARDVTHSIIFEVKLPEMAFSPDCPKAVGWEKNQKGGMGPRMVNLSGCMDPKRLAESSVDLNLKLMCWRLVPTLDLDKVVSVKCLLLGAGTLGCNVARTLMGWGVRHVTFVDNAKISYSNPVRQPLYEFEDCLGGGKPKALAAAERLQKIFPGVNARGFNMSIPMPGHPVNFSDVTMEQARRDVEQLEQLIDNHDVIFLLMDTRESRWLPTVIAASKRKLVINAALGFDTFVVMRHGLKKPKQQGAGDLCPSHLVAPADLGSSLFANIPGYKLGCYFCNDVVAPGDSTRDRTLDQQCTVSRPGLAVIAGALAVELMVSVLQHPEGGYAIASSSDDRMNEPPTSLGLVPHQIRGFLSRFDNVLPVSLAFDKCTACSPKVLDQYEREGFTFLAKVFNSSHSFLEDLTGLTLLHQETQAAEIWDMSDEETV
Test: SPR; ATF3 immobilized on the CM5 sensor chip, ATG7 as analyte
Conditions: both partners purified

B1: ATF3 immobilized on the CM5 sensor chip (natural protein)
chain: MMLQHPGQVSASEVSATAIVPCLSPPGSLVFEDFANLTPFVKEELRFAIQNKHLCHRMSSALESVTVNNRPLEMSVTKSEAAPEEDERKRRRRERNKIAAAKCRNKKKEKTECLQKESEKLESVNAELKAQIEELKNEKQHLIYMLNLHRPTCIVRAQNGRTPEDERNLFIQQIKEGTLQS
For B1, which Kd is on record?
The Kd was 963 nM.
